In data set [1] the target is T1, Mycobacterium smegmatis topoisomerase I (msTopoI) (Mycobacterium smegmatis, UniProt A0R5D9 A0R5D9:2-936).
T1 sequence: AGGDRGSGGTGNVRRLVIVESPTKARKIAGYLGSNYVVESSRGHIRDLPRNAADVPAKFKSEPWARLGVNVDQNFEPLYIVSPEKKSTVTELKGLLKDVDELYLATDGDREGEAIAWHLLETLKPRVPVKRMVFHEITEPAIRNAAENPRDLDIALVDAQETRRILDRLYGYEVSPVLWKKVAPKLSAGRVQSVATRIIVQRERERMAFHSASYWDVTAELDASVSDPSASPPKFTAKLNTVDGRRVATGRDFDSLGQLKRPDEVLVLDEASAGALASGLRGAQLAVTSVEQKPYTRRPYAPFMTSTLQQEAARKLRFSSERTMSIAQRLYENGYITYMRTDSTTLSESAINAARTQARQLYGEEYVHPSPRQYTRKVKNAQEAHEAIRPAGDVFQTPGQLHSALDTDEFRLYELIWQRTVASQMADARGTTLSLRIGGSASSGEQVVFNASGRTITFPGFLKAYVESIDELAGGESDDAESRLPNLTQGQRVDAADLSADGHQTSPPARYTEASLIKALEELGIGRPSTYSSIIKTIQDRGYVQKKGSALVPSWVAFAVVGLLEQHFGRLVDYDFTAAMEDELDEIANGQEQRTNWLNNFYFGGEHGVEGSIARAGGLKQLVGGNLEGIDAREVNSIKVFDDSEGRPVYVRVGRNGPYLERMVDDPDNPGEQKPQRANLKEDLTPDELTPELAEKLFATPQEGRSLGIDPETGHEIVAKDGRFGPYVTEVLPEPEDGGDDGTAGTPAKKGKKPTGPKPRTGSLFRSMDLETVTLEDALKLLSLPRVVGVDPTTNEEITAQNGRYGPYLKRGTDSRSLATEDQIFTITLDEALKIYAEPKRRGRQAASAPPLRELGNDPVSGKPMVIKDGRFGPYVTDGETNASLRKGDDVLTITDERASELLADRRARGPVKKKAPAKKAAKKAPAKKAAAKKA
As to the kind of experiment: ligation of SEQ:16 oligo to substrate; binding in 1 mM EDTA, 300 mM NaCl, 37 C, then 5 mM MgCl2; no numeric result given. The method, then: Prepare a solution containing msTopol as well as 10 mM Tris-HCl (pH 7.5), 1 mM EDTA, and 300 mM NaCl. Add 5 μL to each printed area (see previous section). Incubate for 1 h at 37° C. in humidity chamber. Wash 3×5 minutes in wash buffer 4. To each printed are, add 5 μL of ligation mixture: 2 μM oligonucleotide ([Btn]CAGTGAGCGTCTGGCTGAAGCTTCCGCT; SEQ ID No: 16); 300 mM NaCl; 1 mM Tris-HCl (pH 7.5); 5 mM MgCl₂. Incubate at 37° C. for 1 h in humidity chamber. Wash for 1 min in wash buffer 2, 1 min in wash buffer 3, and 1 min in 96% ethanol. Let the slide air-dry.

A further data set concerns the target HIV integrase (Human immunodeficiency virus, UniProt P04585 P04585:1148-1435). As to the kind of experiment: integration of LTR into dsDNA SEQ:12/SEQ:13; MES pH 6.2, 200 mM KCl, 10 mM MnCl2, 10 mM DTT, 37 C. The note with it: tags: His-tag (pTrcHis), E. coli BL21.

Consider CAGTGAGCGAGCTTCCGCTTGACATCCCAATAGTTTCTCTTC (ssDNA, 3' amino-C6, immobilised on CodeLink slide) [msTopoI substrate], for which, in data set [1], the binding result is reported as “binds”.

B1: HIV LTR substrate (dsDNA)
DNA 1: TTTAGTCAGTGTGGAAAATCTCTAGCAGT
DNA 2: ACTGCTAGAGATTTTCCACACTGACTAAA
modifications: 5' amino-C6-T on both strands, SEQ:6 strand immobilised
As to B1, the binding result with HIV integrase is “binds”.

The values above are taken from US20170137895, “METHODS OF IDENTIFYING ENZYMES AND MICROORGANISMS” (ZYMONOSTICS APS, published 2017).
